Source: paper PMC9352680, “A comprehensive thermodynamic model for RNA binding by the Saccharomyces cerevisiae Pumilio protein PUF4”

T1: PUF4 RNA-binding domain (Saccharomyces cerevisiae, UniProt P25339 537-888)
T1 sequence: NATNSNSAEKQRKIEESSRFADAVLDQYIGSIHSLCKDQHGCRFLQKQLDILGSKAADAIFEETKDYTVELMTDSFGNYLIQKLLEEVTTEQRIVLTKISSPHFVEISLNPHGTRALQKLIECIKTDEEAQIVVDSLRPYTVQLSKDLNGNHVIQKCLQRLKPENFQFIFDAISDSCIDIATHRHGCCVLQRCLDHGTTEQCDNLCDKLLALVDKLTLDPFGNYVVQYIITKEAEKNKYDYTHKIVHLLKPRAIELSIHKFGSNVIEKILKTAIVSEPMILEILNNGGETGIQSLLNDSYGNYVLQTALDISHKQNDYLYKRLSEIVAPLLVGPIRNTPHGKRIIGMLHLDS


Target: T1, PUF4 RNA-binding domain
Assay: Mg; RNA-MaP; 20 mM Na-HEPES pH 7.4, 30 mM KOAc, 0.75 mM MgCl2, 0.1% Tween-20, 5% glycerol, 0.1 mg/mL BSA, 2 mM DTT; 25 C; 0.0125-409.6 nM protein
Settings: tags: N-His6-TEV cleaved; C-SNAP kept, Cy3B-labelled; label: tethered on chip by stalled RNA polymerase

Binder	Kd
UCUCUUCUUCUUGUAUAUAUAUCUCUU (ssRNA) [Ie_S1_P3E.2_K3.1_C3.2_[+-1TCT]_H3.1_A3.1_F3.1_T3.2]	4.28 nM
UCUCUUUGUACUUUUAUCUCUU (ssRNA) [Ib_S1_P5E.1_K5.1_C5.1_H5.1_A5.1_[T5C]_[A7T]_F5.1_T5.1]	3.92 nM
Id_iii_S4_P5E.5_K5.1_C5.3_H5.1_A5.1_F5.1_T5.2_[A12C] (ssRNA) RNA: UUUGACAACUGAUCGUUCUUUCUUCUUGUAUUAUUAUCUUCUUUCUCGAUCAGUUGUCUUU	1.71 nM
Id_iii_S4_P5E.5_K5.1_C5.3_H5.1_A5.1_F5.1_T5.2_[A12T] (ssRNA) RNA: UUUGACAACUGAUCGUUCUUUCUUCUUGUAUUAUUAUUUUCUUUCUCGAUCAGUUGUCUUU	1.28 nM
Id_iii_S4_P5E.7_K5.3_C5.3_[C-2T]_H5.3_A5.1_F5.1_T5.2 (ssRNA) RNA: UUUGACAACUGAUCGUUCUUUCUUUUACACUUAUUAUAUUCUUUCUCGAUCAGUUGUCUUU	513 nM
Id_iii_S4_P5E.7_K5.3_C5.3_[T-1C]_H5.3_A5.1_F5.1_T5.2 (ssRNA) RNA: UUUGACAACUGAUCGUUCUUUCUUCCACACUUAUUAUAUUCUUUCUCGAUCAGUUGUCUUU	543 nM
Id_iii_S4_P5E.7_K5.3_C5.3_[C-2A]_H5.3_A5.1_F5.1_T5.2 (ssRNA) RNA: UUUGACAACUGAUCGUUCUUUCUUAUACACUUAUUAUAUUCUUUCUCGAUCAGUUGUCUUU	1020 nM
Id_iii_S4_P5E.8_K5.4_C5.3_H5.1_A5.2_F5.1_T5.2_[A12C] (ssRNA) RNA: UUUGACAACUGAUCGUUCUUUCUUCUUGUAAUAUUAUCUUCUUUCUCGAUCAGUUGUCUUU	2.73 nM
Id_iii_S4_P5E.8_K5.4_C5.3_[C-2G]_H5.1_A5.2_F5.1_T5.2 (ssRNA) RNA: UUUGACAACUGAUCGUUCUUUCUUGUUGUAAUAUUAUAUUCUUUCUCGAUCAGUUGUCUUU	11.1 nM
UCUCUUCUUUGUAUAUAUAUCUCUU (ssRNA) [Ie_S1_P3E.2_K3.1_C3.2_[+-2T]_H3.1_A3.1_F3.1_T3.2]	4.55 nM
Id_iii_S4_P4E.8_K4.4_C4.3_[C-2T]_H4.1_A4.2_F4.1_T4.2 (ssRNA) RNA: UUUGACAACUGAUCGUUCUUUCUUUUUGUAUUUUAGUUUCUUUCUCGAUCAGUUGUCUUU	0.755 nM
Id_iii_S4_P4E.8_K4.4_C4.3_[T-1G]_H4.1_A4.2_F4.1_T4.2 (ssRNA) RNA: UUUGACAACUGAUCGUUCUUUCUUCGUGUAUUUUAGUUUCUUUCUCGAUCAGUUGUCUUU	1.14 nM
Id_iii_S4_P4E.8_K4.4_C4.3_H4.1_A4.2_F4.1_T4.2_[G10C] (ssRNA) RNA: UUUGACAACUGAUCGUUCUUUCUUCUUGUAUUUUACUUUCUUUCUCGAUCAGUUGUCUUU	1.79 nM
Id_iii_S4_P4E.8_K4.4_C4.3_[T-1C]_H4.1_A4.2_F4.1_T4.2 (ssRNA) RNA: UUUGACAACUGAUCGUUCUUUCUUCCUGUAUUUUAGUUUCUUUCUCGAUCAGUUGUCUUU	0.819 nM
Id_iii_S4_P4E.8_K4.4_C4.3_H4.1_A4.2_F4.1_T4.2_[T11C] (ssRNA) RNA: UUUGACAACUGAUCGUUCUUUCUUCUUGUAUUUUAGCUUCUUUCUCGAUCAGUUGUCUUU	1.04 nM
Id_iii_S4_P4E.8_K4.4_C4.3_[C-2A]_H4.1_A4.2_F4.1_T4.2 (ssRNA) RNA: UUUGACAACUGAUCGUUCUUUCUUAUUGUAUUUUAGUUUCUUUCUCGAUCAGUUGUCUUU	1.14 nM
UCUCUUCUCUUGUAUAUAUAUCUCUU (ssRNA) [Ie_S1_P3E.2_K3.1_C3.2_[+-2TC]_H3.1_A3.1_F3.1_T3.2]	4.74 nM
UCUCUUCUCCUUGUAUAUAUAUCUCUU (ssRNA) [Ie_S1_P3E.2_K3.1_C3.2_[+-2TCC]_H3.1_A3.1_F3.1_T3.2]	4.39 nM
UCUCUUCUUUUGUAUAUAUAUCUCUU (ssRNA) [Ie_S1_P3E.2_K3.1_C3.2_H3.1_[+1TT]_A3.1_F3.1_T3.2]	5.47 nM
UCUCUUUGUACUCUUAUCUCUU (ssRNA) [Ib_S1_P5E.1_K5.1_C5.1_H5.1_A5.1_[T5C]_[A7C]_F5.1_T5.1]	9.68 nM
UCUCUUCCCUUGUAUAUAUAUCUCUU (ssRNA) [Ie_S1_P3E.2_K3.1_C3.2_[+-2CC]_H3.1_A3.1_F3.1_T3.2]	7.06 nM
UCUCUUCCUCUUGUAUAUAUAUCUCUU (ssRNA) [Ie_S1_P3E.2_K3.1_C3.2_[+-2CTC]_H3.1_A3.1_F3.1_T3.2]	7.17 nM
